In US20140162285A1, “Methods of Modulating Vesicular Trafficking” (The General Hospital Corporation, priority 2009, published 2014):
Entries after “also recorded” stand apart in the source; their conditions may differ. One block for each molecule: values may come before it. Ends that are not written are not given here.

Legend:
6His-a2N(wt) = biological target: T1, 6His-a2N(wt) (Mus musculus, UniProt P15920); test: ARNO-derived peptide pull-down with in vitro translated 6His-a2N(wt); assay type: binding; details: 7 nmol biotin-tagged peptide on streptavidin-agarose beads
T1 construct: amino acid residues 1-402 of mouse V-ATPase a2-subunit (a2N1-402); made in house; host or cells: cell-free in vitro translation
T1 sequence (P15920 1-402): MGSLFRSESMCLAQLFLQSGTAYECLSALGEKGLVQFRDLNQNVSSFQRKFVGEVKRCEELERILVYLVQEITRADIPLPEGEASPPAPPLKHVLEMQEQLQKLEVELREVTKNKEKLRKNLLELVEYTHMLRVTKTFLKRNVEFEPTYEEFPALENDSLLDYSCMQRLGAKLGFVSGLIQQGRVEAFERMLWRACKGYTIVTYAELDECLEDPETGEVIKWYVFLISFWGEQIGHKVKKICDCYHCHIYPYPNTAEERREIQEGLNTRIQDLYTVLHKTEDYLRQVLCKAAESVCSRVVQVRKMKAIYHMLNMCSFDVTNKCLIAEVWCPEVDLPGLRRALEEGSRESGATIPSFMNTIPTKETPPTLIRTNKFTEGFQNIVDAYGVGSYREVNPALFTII
Description: FIGS. 4B-C are images of Western blots showing (4B) the results of peptide pull-down assays for interaction of a2N with Sec7-PH-linker of ARNO and (4C) phosphorylation-dependent interaction of a2N with ARNO-derived peptide corresponding to the PB-domain of ARNO. Corresponding ARNO-derived peptides were immobilized on streptavidin-beads and incubated with in vitro translated recombinant a2N. Interacting complexes were eluted and analyzed by Western blotting using anti-a2N antibodies.
ARNO-derived peptides, equal amounts (7 nmol) of biotin-tagged synthetic peptides were also immobilized on streptavidin-agarose beads followed by incubation with 10 μl of in vitro translated 6His-a2N(wt) recombinant protein. Pull-down experiments and SDS-PAGE analysis were performed as described above and interacting 6His-a2N/ARNO-derived-peptide complexes were analyzed by Western blotting using polyclonal anti-a2N antibody. All experiments were repeated at least three times with similar results.

GST-ARNO(wt) = biological target: T2, GST-ARNO(wt) (Homo sapiens, UniProt Q99418); test: recombinant protein pull-down of in vitro translated a2N-N / a2N-C with GST-ARNO(wt); assay type: binding; details: 35S-labeled in vitro translated protein, autoradiography
T2 construct: i) 1-400aa, full length ARNO(wt); made in house; host or cells: E. coli BL21(DE3)
T2 sequence (Q99418 1-400): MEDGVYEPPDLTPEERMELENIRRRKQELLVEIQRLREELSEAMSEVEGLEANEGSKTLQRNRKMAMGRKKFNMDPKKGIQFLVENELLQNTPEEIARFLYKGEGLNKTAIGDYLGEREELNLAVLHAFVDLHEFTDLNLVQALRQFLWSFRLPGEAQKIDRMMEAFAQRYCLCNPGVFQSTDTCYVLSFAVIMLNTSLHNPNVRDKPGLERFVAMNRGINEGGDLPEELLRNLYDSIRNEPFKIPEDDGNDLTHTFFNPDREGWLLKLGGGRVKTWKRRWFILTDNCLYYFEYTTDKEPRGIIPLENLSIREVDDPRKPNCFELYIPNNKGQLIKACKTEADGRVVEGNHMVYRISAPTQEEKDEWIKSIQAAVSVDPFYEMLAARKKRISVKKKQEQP
From the text: FIG. 2C is an image of a Western blot showing that both the amino terminus (a2N-N) and carboxyl terminus (a2N-C) of the cytosolic tail of the a2-subunit interact with ARNO(wt). Left panel, a pull-down (PD) of in vitro translated metabolically labeled a2N-N (a2N1-133) with recombinant GST-only and GST-ARNO(wt) used as a baits. […] Right panel, a pull-down (PD) of in vitro translated metabolically labeled a2N-C (a2N134-393) with recombinant GST-only and GST-ARNO(wt) used as a baits.
The purified recombinant GST-ARNO(wt) and GST-tagged ARNO domain constructs ([…]) were incubated with 10 μl of in vitro translated 6His-a2N recombinant protein at 4° C. for 2 hours in 500 μl of binding buffer (10 mM HEPES, 1 mM EDTA, 1 mM DTT, 100 mM NaCl, 10% glycerol, 0.1% NP-40) with gentle rotation. Then the interacting recombinant proteins were immobilized on glutathione beads by incubation with 50 μl of 50% glutathione Sepharose 4B slurry for 2 hours at 4° C. The beads were collected by centrifugation and washed 5 times with 500 μl ice-cold binding buffer. Interacting proteins were eluted by boiling in SDS-PAGE sample buffer for 10 min at 95° C., resolved by SDS-PAGE and analyzed by Western blotting using polyclonal anti-a2N antibodies. […]

interaction of ARNO-derived peptide with a2N (6His-a2N(wt)): direct interaction
Molecule: ARNO375-400: biotinylated non-phosphorylated peptide covering the PB-domain of ARNO plus four PH/PB-linker amino acids, SEQ ID NO:32 (VSVDPFYEMLAARKKRISVKKKQEQP; also: biotinylated, site not given here)

B1: a2N-C: C-terminal part of a2N, amino acid residues 134-393 of the mouse V-ATPase a2-subunit, in vitro translated (protein)
chain: MSGSHHHHHHSSGIEGRGRLIKMTVTKTFLKRNVEFEPTYEEFPALENDSLLDYSCMQRLGAKLGFVSGLIQQGRVEAFERMLWRACKGYTIVTYAELDECLEDPETGEVIKWYVFLISFWGEQIGHKVKKICDCYHCHIYPYPNTAEERREIQEGLNTRIQDLYTVLHKTEDYLRQVLCKAAESVCSRVVQVRKMKAIYHMLNMCSFDVTNKCLIAEVWCPEVDLPGLRRALEEGSRESGATIPSFMNTIPTKETPPTLIRTNKFTEGFQNIVDAYGVGSYRE
interaction with GST-ARNO(wt) in pull-down (GST-ARNO(wt)): could interact; also recorded: direct interaction

B2: a2N-N: N-terminal part of a2N, amino acid residues 1-133 of the mouse V-ATPase a2-subunit, in vitro translated (protein)
chain: MSGSHHHHHHSSGIEGRGRLIKMTMGSLFRSESMCLAQLFLQSGTAYECLSALGEKGLVQFRDLNQNVSSFQRKFVGEVKRCEELERILVYLVQEITRADIPLPEGEASPPAPPLKHVLEMQEQLQKLEVELREVTKNKEKLRKNLLELVEYTHMLR
interaction with GST-ARNO(wt) in pull-down (GST-ARNO(wt)): could interact; also recorded: direct interaction
